# Source: article PMC5771688
# What was measured:
# [1] = biological target: VE-cadherin (VEC) of VEC-positive cells (VEC-null line reconstituted with VEC wild type cDNA) (UniProt P33151); test: co-IP
# [2] = biological target: β-catenin (endogenous) (mouse (endogenous in mouse ECs)) (UniProt Q02248); test: co-IP
# Sequence of UniProt Q02248 (Q02248 whole entry): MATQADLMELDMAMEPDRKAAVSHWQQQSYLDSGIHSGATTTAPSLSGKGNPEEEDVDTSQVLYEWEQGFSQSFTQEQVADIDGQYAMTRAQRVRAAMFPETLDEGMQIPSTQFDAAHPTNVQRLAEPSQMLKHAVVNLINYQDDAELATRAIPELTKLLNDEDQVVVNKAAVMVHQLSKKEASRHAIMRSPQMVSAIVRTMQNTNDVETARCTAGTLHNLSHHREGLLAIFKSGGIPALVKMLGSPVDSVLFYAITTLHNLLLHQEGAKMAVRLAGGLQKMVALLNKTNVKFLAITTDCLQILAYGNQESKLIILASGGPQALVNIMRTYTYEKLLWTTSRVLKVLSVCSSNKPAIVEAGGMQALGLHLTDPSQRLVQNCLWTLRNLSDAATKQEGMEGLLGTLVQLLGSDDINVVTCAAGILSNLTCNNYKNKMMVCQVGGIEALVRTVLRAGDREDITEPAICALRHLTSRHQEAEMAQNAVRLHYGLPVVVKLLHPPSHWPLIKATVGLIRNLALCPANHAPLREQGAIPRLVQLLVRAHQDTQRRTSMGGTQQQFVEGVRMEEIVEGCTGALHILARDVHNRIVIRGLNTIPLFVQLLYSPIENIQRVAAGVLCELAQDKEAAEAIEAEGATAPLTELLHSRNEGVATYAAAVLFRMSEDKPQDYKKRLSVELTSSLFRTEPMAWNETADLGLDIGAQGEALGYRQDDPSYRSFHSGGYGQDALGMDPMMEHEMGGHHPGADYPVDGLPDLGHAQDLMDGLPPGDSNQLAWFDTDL
# Sequence of UniProt P33151 (P33151 48-784): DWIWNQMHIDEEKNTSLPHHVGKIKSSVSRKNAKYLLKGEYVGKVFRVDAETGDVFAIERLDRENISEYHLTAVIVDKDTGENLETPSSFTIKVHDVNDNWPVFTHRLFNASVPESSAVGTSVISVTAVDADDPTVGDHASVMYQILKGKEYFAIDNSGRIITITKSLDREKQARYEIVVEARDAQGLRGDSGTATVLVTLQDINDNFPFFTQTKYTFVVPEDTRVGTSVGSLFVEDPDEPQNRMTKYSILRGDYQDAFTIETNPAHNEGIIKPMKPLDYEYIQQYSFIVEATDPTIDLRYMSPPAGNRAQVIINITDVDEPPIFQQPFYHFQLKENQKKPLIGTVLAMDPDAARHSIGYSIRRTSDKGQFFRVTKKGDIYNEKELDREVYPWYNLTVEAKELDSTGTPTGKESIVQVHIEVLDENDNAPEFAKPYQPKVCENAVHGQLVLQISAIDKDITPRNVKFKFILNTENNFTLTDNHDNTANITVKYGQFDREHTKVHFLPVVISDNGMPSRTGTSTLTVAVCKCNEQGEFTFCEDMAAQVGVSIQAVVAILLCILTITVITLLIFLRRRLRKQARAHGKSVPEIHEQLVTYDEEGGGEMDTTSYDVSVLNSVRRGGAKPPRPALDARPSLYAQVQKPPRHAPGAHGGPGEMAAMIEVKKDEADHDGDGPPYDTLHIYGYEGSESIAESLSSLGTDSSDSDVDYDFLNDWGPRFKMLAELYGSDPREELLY
Substance,percent reduction of VEC/Ezh2 association [1] [%],percent reduction of VEC/Ezh2 association [2] [%]
TAT-M10 (Ezh2 peptide M10 synthesized in tandem with TAT of human immunodeficiency virus) (from UniProt Q61188 454-473),45.3,
TAT-P30 (Ezh2 peptide P30 synthesized in tandem with TAT of human immunodeficiency virus) (from UniProt Q61188 585-604),,28
